Consider 67 sequences from the supplement of paper PMC10724198.

± gives the standard deviation of the averaged measurements.

This data set relates to Saccharomyces cerevisiae. Description: protein stability index of tFT-peptide fusion (C-terminal peptide) (PSI (0-1 scale)); higher = more stable (slower turnover). The settings on record: temperature: 30 C. How it is done: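 MPS profiling in S. cerevisiae of the yeast C-terminome library: the last 12 aa of each annotated ORF are fused to the C-terminus of a sfGFP-mCherry timer, after a GGGS linker. Cells are FACS-sorted into 8 mCherry/sfGFP bins and deep-sequenced. PSI runs from 0 (unstable) to 1 (stable); wild type and das1Δ backgrounds, two technical replicates each.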

Setting [1] is: genetic background: das1 deletion.

In the case of “NKHDLHLRPGTY [YDR098C-A C-terminal 12 aa]”, the protein stability index amounted to 0.66848 ± 3.1e-05 under setting [1] and 0.658 ± 0.007 (genetic background: wild type).
For NKLLDKESVSED [YLR046C C-terminal 12 aa], in that order: 0.709 ± 0.027 and 0.711 ± 0.11.
Turning to “NKTICLRNYHWL [YIR017W-A C-terminal 12 aa]”, the protein stability index under setting [1] came out at 0.702 ± 0.012 and the protein stability index (genetic background: wild type) was found to be 0.607 ± 0.0078.
Regarding NLKLKFNENIME [DIT2 C-terminal 12 aa], the protein stability index is 0.695 ± 0.033 under setting [1] and 0.639 ± 0.0087 (genetic background: wild type).
As for NLLLSGSLYQKN [BUD28 C-terminal 12 aa], the protein stability index came to 0.751 ± 0.011 under setting [1] and 0.672 ± 0.036 (genetic background: wild type).
The corresponding values for NMEKFVRKCWKD [MKK1 C-terminal 12 aa] are 0.691 ± 0.059 and 0.73796 ± 0.00058.
On to NQVKLNQLLVGN [CSE1 C-terminal 12 aa], for which the protein stability index reads like this: under setting [1], 0.627 ± 0.038; (genetic background: wild type) 0.641 ± 0.0068.
Turning to NTLLSPSRKDNS [MVB12 C-terminal 12 aa], the protein stability index is, setting by setting: under setting [1], 0.705 ± 0.0098; (genetic background: wild type) 0.698 ± 0.034.
The corresponding values for NVAAAEASKKGN [YET1 C-terminal 12 aa] are 0.728 ± 0.033 and 0.685 ± 0.053.
For NVDDAYSRVFGI [MPS2 C-terminal 12 aa], the protein stability index came to 0.719 ± 0.011 under setting [1] and 0.673 ± 0.025 (genetic background: wild type).
On to NVEDEYSYSLTL [VPS68 C-terminal 12 aa], for which the protein stability index by setting is: under setting [1], 0.701 ± 0.0071; (genetic background: wild type) 0.706 ± 0.066.
Regarding NVGNNEETLDDH [RAD34 C-terminal 12 aa], the protein stability index is, setting by setting: under setting [1], 0.726 ± 0.047; (genetic background: wild type) 0.701 ± 0.067.
For NVWDWNNWTSAT [GAL11 C-terminal 12 aa], in that order: 0.7485 ± 0.006 and 0.767 ± 0.012.
For NYESVEVPAANN [YML018C C-terminal 12 aa], in that order: 0.682 ± 0.0077 and 0.7097 ± 0.0019.
For PARESMLHKEIK [ADE12 C-terminal 12 aa], in that order: 0.745 ± 0.011 and 0.668 ± 0.011.
As for “PCYSDAPPRFMC [YER152W-A C-terminal 12 aa]”, the protein stability index under setting [1] was determined as 0.701 ± 0.034 and the protein stability index (genetic background: wild type) was found to be 0.287 ± 0.0035.
For PDMIEELDLHED [GPD1 C-terminal 12 aa], the protein stability index reads like this: under setting [1], 0.716 ± 0.031; (genetic background: wild type) 0.749 ± 0.1.
“PDYKSNTQILVL [YOL155W-A C-terminal 12 aa]”: the protein stability index is, setting by setting: under setting [1], 0.56446 ± 0.00018; (genetic background: wild type) 0.584 ± 0.029.
For PEEETNWFSGHG [PRP31 C-terminal 12 aa], in that order: 0.745 ± 0.032 and 0.73 ± 0.025.
The corresponding values for PEMIEELDIDDE [GPD2 C-terminal 12 aa] are 0.707 ± 0.018 and 0.658 ± 0.015.
Consider PEYDQVKQNNKE [YLR041W C-terminal 12 aa], for which the protein stability index is, setting by setting: under setting [1], 0.691 ± 0.023; (genetic background: wild type) 0.676 ± 0.03.
For PFNRNVSDKLKK [VAC14 C-terminal 12 aa], in that order: 0.733 ± 0.038 and 0.713 ± 0.063.
Consider PGVMLGRWKVTA [VPS61 C-terminal 12 aa], for which the protein stability index is, setting by setting: under setting [1], 0.612 ± 0.013; (genetic background: wild type) 0.356 ± 0.0069.
Take PGWDFNVQIFAI [HRD3 C-terminal 12 aa]: the protein stability index came out at 0.618 ± 0.005 under setting [1] and 0.607 ± 0.0086 (genetic background: wild type).
Consider “PIICASVTFLPT [YAL056C-A C-terminal 12 aa]”, for which the protein stability index runs as follows: under setting [1], 0.6572 ± 0.00082; (genetic background: wild type) 0.629 ± 0.026.
The corresponding values for PIKGGDKASSEL [ATG5 C-terminal 12 aa] are 0.679 ± 0.0085 and 0.6877 ± 0.0045.
For the sequence PILSQEVDRWRL [GAC1 C-terminal 12 aa], the protein stability index runs as follows: under setting [1], 0.732 ± 0.011; (genetic background: wild type) 0.744 ± 0.018.
The corresponding values for PIRGVTGGVYKW [MRPL22 C-terminal 12 aa] are 0.71 ± 0.012 and 0.702 ± 0.02.
For PKALFQSRDQEH [SIC1 C-terminal 12 aa], in that order: 0.724 ± 0.022 and 0.702 ± 0.014.
For PKIGILHNYLYL [YFT2 C-terminal 12 aa], in that order: 0.698 ± 0.015 and 0.654 ± 0.0094.
As for “PLLLVSHLNFAV [YIR020C-B C-terminal 12 aa]”, the protein stability index worked out at 0.673 ± 0.0087 under setting [1] and 0.557 ± 0.033 (genetic background: wild type).
As for PLVHEVNGNEGK [DUF1 C-terminal 12 aa], the protein stability index stood at 0.68 ± 0.011 under setting [1] and 0.716 ± 0.076 (genetic background: wild type).
With PNAIRGIKAKKA [COX7 C-terminal 12 aa], the protein stability index under setting [1] was determined as 0.723 ± 0.011 and the protein stability index (genetic background: wild type) came to 0.675 ± 0.046.
The corresponding values for PPVPEVPQEYTQ [TCB3 C-terminal 12 aa] are 0.722 ± 0.014 and 0.709 ± 0.041.
For PSLRTRSSYTEE [FLR1 C-terminal 12 aa], the protein stability index is, setting by setting: under setting [1], 0.6845 ± 0.0013; (genetic background: wild type) 0.717 ± 0.043.
Turning to PTCETTIDIDRI [ZRG17 C-terminal 12 aa], the protein stability index is, setting by setting: under setting [1], 0.687 ± 0.0087; (genetic background: wild type) 0.65 ± 0.0076.
With QDGIKEAASALA [INO80 C-terminal 12 aa], the protein stability index is, setting by setting: under setting [1], 0.6794 ± 0.0025; (genetic background: wild type) 0.665 ± 0.04.
Regarding QDKRSSQAIDVL [MMS21 C-terminal 12 aa], the protein stability index under setting [1] is 0.688 ± 0.015 and the protein stability index (genetic background: wild type) is 0.6684 ± 0.0019.
The corresponding values for QEGNRMCIWMSG [YFL015C C-terminal 12 aa] are 0.7 ± 0.0079 and 0.7 ± 0.011.
The sequence QEGTFKRLALPA [THI11 C-terminal 12 aa] returned a protein stability index under setting [1] of 0.639 ± 0.013 and a protein stability index (genetic background: wild type) of 0.65426 ± 7.7e-05.
The corresponding values for QEKEHKKHTVAR [CAJ1 C-terminal 12 aa] are 0.694 ± 0.011 and 0.672 ± 0.014.
The corresponding values for QFLFTGRQKNYV [ERP2 C-terminal 12 aa] are 0.718 ± 0.017 and 0.718 ± 0.024.
For QFWKNTPKVEQK [HOC1 C-terminal 12 aa], in that order: 0.71 ± 0.024 and 0.695 ± 0.019.
Turning to QGALDSLLNGDV [DSK2 C-terminal 12 aa], the protein stability index was determined as 0.685 ± 0.03 under setting [1] and 0.701 ± 0.019 (genetic background: wild type).
The corresponding values for QGKAFYDRIKDL [RFS1 C-terminal 12 aa] are 0.683 ± 0.013 and 0.255 ± 0.025.
With QGKVRLWKLNHY [UTP18 C-terminal 12 aa], the protein stability index runs as follows: under setting [1], 0.7 ± 0.021; (genetic background: wild type) 0.616 ± 0.025.
Consider QIDKYMDLFTEG [PDH1 C-terminal 12 aa], for which the protein stability index by setting is: under setting [1], 0.7253 ± 0.0065; (genetic background: wild type) 0.7354 ± 0.0063.
As for QIVEEWIVSTEA [CLB4 C-terminal 12 aa], the protein stability index under setting [1] was 0.623 ± 0.012 and the protein stability index (genetic background: wild type) was 0.63 ± 0.023.
Consider QIVNSTPVFTWC [LSB6 C-terminal 12 aa], for which the protein stability index under setting [1] stood at 0.653 ± 0.03 and the protein stability index (genetic background: wild type) amounted to 0.652 ± 0.034.
Consider “QKRSCFFLANIH [YKL183C-A C-terminal 12 aa]”, for which the protein stability index was 0.661 ± 0.01 under setting [1] and 0.608 ± 0.027 (genetic background: wild type).
The corresponding values for QLENKLEILKQK [SPC19 C-terminal 12 aa] are 0.699 ± 0.052 and 0.7259 ± 0.0072.
As to QLLNLLVKISQL [RFC2 C-terminal 12 aa], the protein stability index turned out to be 0.677 ± 0.032 under setting [1] and 0.18 ± 0.0089 (genetic background: wild type).
For QNLLPAEKFTHN [CTR1 C-terminal 12 aa], in that order: 0.6962 ± 0.0032 and 0.663 ± 0.0075.
Regarding QPKKKRKKSILH [SPP41 C-terminal 12 aa], the protein stability index is, setting by setting: under setting [1], 0.749 ± 0.061; (genetic background: wild type) 0.672 ± 0.05.
For “QPLLPCFFRRAV [YER147C-A C-terminal 12 aa]”, in that order: 0.691 ± 0.011 and 0.4308 ± 0.0042.
QQLQSPTAPPTE [COX14 C-terminal 12 aa]: the protein stability index under setting [1] was found to be 0.727 ± 0.008 and the protein stability index (genetic background: wild type) was found to be 0.694 ± 0.038.
Regarding QQSESLPQQTTA [PIL1 C-terminal 12 aa], the protein stability index under setting [1] was 0.7046 ± 0.0038 and the protein stability index (genetic background: wild type) was 0.737 ± 0.049.
For QRIEGMLQLLTS [UTP15 C-terminal 12 aa], in that order: 0.715 ± 0.025 and 0.64093 ± 0.00026.
Take QSLYKDATSHWL [GYP1 C-terminal 12 aa]: the protein stability index under setting [1] amounted to 0.7085 ± 0.0033 and the protein stability index (genetic background: wild type) came to 0.6825 ± 0.0036.
The corresponding values for “QSVAILDGKLVW [YGL258W-A C-terminal 12 aa]” are 0.677 ± 0.015 and 0.65 ± 0.021.
For QTLAPVPYETFI [RPL21A C-terminal 12 aa], in that order: 0.718 ± 0.01 and 0.728 ± 0.013.
The corresponding values for QVVAIIKKAYEY [ADH4 C-terminal 12 aa] are 0.707 ± 0.0071 and 0.679 ± 0.015.
For QYKNKLAKNVVL [ARB1 C-terminal 12 aa], the protein stability index reads like this: under setting [1], 0.675 ± 0.012; (genetic background: wild type) 0.6797 ± 0.0058.
For QYTQRVGRPNFE [YGR226C C-terminal 12 aa], in that order: 0.7078 ± 0.0012 and 0.674 ± 0.026.
For the sequence RARPRTANRQHM [CCT2 C-terminal 12 aa], the protein stability index under setting [1] is 0.68332 ± 0.0002 and the protein stability index (genetic background: wild type) was found to be 0.6991 ± 0.005.
For RDLLRDDKVALI [SLD5 C-terminal 12 aa], the protein stability index is 0.715 ± 0.023 under setting [1] and 0.6977 ± 0.0027 (genetic background: wild type).
Take REENAHLETYKV [HRK1 C-terminal 12 aa]: the protein stability index was 0.7 ± 0.0068 under setting [1] and 0.694 ± 0.016 (genetic background: wild type).
